Assay results taken from IntAct's records for PubMed 12649160.

B1: Fanconi anemia group C protein (Homo sapiens), Q00597 (parent)
chain: MAQDSVDLSCDYQFWMQKLSVWDQASTLETQQDTCLHVAQFQEFLRKMYEALKEMDSNTVIERFPTIGQLLAKACWNPFILAYDESQKILIWCLCCLINKEPQNSGQSKLNSWIQGVLSHILSALRFDKEVALFTQGLGYAPIDYYPGLLKNMVLSLASELRENHLNGFNTQRRMAPERVASLSRVCVPLITLTDVDPLVEALLICHGREPQEILQPEFFEAVNEAILLKKISLPMSAVVCLWLRHLPSLEKAMLHLFEKLISSERNCLRRIECFIKDSSLPQAACHPAIFRVVDEMFRCALLETDGALEIIATIQVFTQCFVEALEKASKQLRFALKTYFPYTSPSLAMVLLQDPQDIPRGHWLQTLKHISELLREAVEDQTHGSCGGPFESWFLFIHFGGWAEMVAEQLLMSAAEPPTALLWLLAFYYGPRDGRQQRAQTMVQVKAVLGHLLAMSRSSSLSAQDLQTVAGQGTDTDLRAPAQQLIRHLLLNFLLWAPGGHTIAWDVITLMAHTAEITHEIIGFLDQTLYRWNRLGIESPRSEKLARELLKELRTQV
partner: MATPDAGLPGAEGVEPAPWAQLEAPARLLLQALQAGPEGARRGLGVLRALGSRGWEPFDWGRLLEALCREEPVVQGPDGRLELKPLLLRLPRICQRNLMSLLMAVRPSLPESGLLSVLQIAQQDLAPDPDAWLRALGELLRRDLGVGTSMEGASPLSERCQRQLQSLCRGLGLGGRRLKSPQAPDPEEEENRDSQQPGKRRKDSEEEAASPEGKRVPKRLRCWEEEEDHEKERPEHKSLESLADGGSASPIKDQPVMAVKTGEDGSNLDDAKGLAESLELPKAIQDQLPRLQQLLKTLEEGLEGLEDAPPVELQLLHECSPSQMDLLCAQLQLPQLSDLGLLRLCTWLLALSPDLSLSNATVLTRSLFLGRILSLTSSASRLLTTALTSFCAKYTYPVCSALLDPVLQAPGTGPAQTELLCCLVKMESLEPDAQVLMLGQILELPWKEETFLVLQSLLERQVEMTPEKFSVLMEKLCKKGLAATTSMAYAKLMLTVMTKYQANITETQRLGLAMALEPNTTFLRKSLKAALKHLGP
B2: Fanconi anemia group G protein (Homo sapiens), O15287 (parent)
chain: MSRQTTSVGSSCLDLWREKNDRLVRQAKVAQNSGLTLRRQQLAQDALEGLRGLLHSLQGLPAAVPVLPLELTVTCNFIILRASLAQGFTEDQAQDIQRSLERVLETQEQQGPRLEQGLRELWDSVLRASCLLPELLSALHRLVGLQAALWLSADRLGDLALLLETLNGSQSGASKDLLLLLKTWSPPAEELDAPLTLQDAQGLKDVLLTAFAYRQGLQELITGNPDKALSSLHEAASGLCPRPVLVQVYTALGSCHRKMGNPQRALLYLVAALKEGSAWGPPLLEASRLYQQLGDTTAELESLELLVEALNVPCSSKAPQFLIEVELLLPPPDLASPLHCGTQSQTKHILASRCLQTGRAGDAAEHYLDLLALLLDSSEPRFSPPPSPPGPCMPEVFLEAAVALIQAGRAQDALTLCEELLSRTSSLLPKMSRLWEDARKGTKELPYCPLWVSATHLLQGQAWVQLGAQKVAISEFSRCLELLFRATPEEKEQGAAFNCEQGCKSDAALQQLRAAALISRGLEWVASGQDTKALQDFLLSVQMCPGNRDTYFHLLQTLKRLDRRDEATALWWRLEAQTKGSHEDALWSLPLYLESYLSWIRPSDRDAFLEEFRTSLPKSCDL
partner: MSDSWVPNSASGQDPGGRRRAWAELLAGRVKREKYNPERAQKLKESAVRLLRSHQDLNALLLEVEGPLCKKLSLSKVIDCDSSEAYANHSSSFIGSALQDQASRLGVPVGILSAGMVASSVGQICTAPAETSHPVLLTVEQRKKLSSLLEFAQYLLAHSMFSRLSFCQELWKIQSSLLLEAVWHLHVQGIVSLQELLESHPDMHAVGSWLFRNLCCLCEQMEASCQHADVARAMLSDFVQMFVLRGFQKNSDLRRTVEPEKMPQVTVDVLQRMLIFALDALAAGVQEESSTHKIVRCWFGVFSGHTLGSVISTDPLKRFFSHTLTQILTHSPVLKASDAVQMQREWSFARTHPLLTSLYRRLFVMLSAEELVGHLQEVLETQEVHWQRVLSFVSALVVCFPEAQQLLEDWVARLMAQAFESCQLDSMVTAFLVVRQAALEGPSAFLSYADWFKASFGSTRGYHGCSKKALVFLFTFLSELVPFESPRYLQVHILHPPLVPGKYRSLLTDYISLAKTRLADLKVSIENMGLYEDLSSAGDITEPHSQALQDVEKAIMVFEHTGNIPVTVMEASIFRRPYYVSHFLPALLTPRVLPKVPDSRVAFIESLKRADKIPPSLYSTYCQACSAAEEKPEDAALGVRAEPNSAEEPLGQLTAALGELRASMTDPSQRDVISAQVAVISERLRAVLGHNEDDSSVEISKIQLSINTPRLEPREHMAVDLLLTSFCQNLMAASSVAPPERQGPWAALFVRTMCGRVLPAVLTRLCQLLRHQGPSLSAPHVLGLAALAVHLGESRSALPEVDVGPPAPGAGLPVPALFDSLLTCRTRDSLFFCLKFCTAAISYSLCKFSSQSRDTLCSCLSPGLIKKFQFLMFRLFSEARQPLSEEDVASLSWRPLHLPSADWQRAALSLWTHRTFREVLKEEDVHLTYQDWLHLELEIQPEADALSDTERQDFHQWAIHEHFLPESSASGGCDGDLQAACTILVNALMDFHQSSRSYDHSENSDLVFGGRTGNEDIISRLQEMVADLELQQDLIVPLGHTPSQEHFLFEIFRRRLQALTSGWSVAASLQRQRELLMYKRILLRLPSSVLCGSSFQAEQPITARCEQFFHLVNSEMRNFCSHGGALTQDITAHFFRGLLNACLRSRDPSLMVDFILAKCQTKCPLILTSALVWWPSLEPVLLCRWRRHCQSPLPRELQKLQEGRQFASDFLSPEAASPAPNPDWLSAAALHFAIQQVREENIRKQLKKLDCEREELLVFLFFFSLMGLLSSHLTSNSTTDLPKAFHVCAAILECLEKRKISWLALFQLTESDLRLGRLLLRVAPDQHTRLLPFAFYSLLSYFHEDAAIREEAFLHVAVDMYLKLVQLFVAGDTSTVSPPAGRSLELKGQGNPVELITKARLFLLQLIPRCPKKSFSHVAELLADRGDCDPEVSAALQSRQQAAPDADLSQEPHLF

Variants of: B1
Details: with fance_human FANCE

| effect of a mutation on the interaction | Variant |
| --- | --- |
| disrupting interaction | L554P |

Variants of: B2
Details: with fanca_human FANCA

| effect of a mutation on the interaction | Variant |
| --- | --- |
| disrupting interaction | L71P |
